Values of other authors as cited in publication PMC10871162.
Like-named read-outs stand apart in the source and are kept apart here.

How the values were obtained:
[1] = target: RyR peptide RyR peptide (Homo sapiens) (UniProt P21817)
[2] = target: RyR peptide (UniProt P21817)
[3] = target: RIIβ peptide (UniProt P31323)
[4] = target: TRTK-12 (CapZ peptide) (Homo sapiens) (UniProt P52907)
[5] = target: nonmuscle myosin IIA mysIIA peptide (Homo sapiens) (UniProt P35579)
[6] = target: myosin IIA peptide (Homo sapiens) (UniProt P35579)
[7] = target: TRTK-12 (CapZ peptide) (Homo sapiens) (UniProt P52907); remark: listed apart in the source

Chain of UniProt P31323 (P31323 whole entry): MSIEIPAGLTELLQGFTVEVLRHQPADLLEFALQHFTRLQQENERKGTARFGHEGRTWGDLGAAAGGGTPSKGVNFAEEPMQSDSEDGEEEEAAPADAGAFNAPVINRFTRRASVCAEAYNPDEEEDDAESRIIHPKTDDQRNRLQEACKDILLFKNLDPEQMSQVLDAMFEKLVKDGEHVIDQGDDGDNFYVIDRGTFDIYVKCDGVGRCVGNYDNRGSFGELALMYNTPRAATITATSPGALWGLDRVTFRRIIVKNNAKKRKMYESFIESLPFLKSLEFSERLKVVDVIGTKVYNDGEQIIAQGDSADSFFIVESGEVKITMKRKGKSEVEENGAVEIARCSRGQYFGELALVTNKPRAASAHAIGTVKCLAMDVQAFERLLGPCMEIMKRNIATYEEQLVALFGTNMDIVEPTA

In the case of S100A1 (from UniProt P23297), the Kd [1] is listed as 8 µM, the Kd [2] is listed as 8 µM and the Kd [3] is listed as 2 µM. For the same substance, the Kd [4] was 23 µM.
In the case of S100A4 (from UniProt P26447), the Kd [5] is listed as under 0.001 µM and the Kd [6] is listed as under 0.001 µM.
In the case of S100B (from UniProt P04271), the Kd [7] is listed as 2.9 µM.
